Two substances from PMC5864728 can be followed below.

This test deals with human ICAM-1 extracellular domain with human IgG1 Fc (UniProt P05362). Put plainly: flow cytometry on cells. The following applies: HEK293FT cells; co-expressed with β2-WT and GFP-TH; parent: est. 270; read off a plot.
Chain of UniProt P05362 (P05362 whole entry, looked up, the tested form may be a part): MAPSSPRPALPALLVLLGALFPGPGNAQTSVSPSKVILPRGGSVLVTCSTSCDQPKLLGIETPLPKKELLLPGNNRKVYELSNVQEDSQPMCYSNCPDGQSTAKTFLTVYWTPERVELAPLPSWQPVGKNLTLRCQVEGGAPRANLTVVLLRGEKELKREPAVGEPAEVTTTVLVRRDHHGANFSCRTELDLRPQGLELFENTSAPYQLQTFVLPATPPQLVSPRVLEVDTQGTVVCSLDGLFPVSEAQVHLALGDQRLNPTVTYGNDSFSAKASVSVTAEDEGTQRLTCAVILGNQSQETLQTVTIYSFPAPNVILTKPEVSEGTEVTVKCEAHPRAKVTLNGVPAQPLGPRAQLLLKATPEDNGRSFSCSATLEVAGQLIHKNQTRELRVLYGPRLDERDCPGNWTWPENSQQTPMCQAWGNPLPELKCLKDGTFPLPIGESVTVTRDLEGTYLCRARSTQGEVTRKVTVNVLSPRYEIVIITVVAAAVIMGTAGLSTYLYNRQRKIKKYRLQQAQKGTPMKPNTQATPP

For αL-WT/β2-WT αL:K1097Y, the response (Normalized MFI in %) turned out to be 190.

As for αL-WT/β2-WT αL:L1096Y, the response (Normalized MFI in %) came out at 230.
